# According to US11130794B2, “Bifunctional compounds” (Novo Nordisk A/S, priority 2017, dated 2021):
# Biological target: T1, hPCSK9 (Homo sapiens, UniProt Q8NBP7)
# T1 construct: purchased Sino Biologicals, China
# Assay: C6 hPCSK9 challenge model, LDL-R expression in mouse liver (Western blot)
# Format: in vivo
# Conditions: healthy control 100%, hPCSK9 alone 0%
# Description: Sixty minutes after the injection of hPCSK9, the animals are anaesthetised in isoflurane and euthanised by cervical dislocation. The liver is then quickly excised and snapfrozen in liquid nitrogen. The livers are kept at −80° C. until analysis.
# The proteins are transferred to nitrocellulose membranes (iBlot 2 NC Regular stacks, novex #IB23001) according to manufacturer's instructions (Life Technology). Equal protein transfer is confirmed by Ponceau S (Sigma, P7170) staining of the membranes and the membranes are further blocked in blocking buffer (TBS-T, 2% Tween). […] Quantitative analysis of chemiluminescent signals from Western blots is done with MultiGauge software (Fujifilm).
# The LDL-R expression levels were measured by Western Blot, and the expression levels compared.
# T1 sequence (Q8NBP7 153-692): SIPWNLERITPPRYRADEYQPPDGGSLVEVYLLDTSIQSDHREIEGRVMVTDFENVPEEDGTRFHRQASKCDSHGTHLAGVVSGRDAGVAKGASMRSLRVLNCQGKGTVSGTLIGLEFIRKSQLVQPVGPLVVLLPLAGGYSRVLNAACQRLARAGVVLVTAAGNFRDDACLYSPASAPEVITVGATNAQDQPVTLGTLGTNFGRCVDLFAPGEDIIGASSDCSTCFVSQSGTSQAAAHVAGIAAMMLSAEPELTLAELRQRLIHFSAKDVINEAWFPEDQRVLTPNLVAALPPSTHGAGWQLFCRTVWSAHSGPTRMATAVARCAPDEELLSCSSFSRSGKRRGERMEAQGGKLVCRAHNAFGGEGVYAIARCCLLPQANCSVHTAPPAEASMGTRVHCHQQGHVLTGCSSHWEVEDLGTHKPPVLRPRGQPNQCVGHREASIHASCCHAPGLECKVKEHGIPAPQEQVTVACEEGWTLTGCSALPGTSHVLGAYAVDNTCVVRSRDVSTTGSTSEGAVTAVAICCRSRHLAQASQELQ
substance,measurement,setting,value
"Alirocumab: anti-PCSK9 antibody, control molecule in the hPCSK9 challenge model",Percentage of baseline (%) Mean ± SEM,compound 30 nmol/kg,100 ± 13%
same,Percentage of baseline (%),inhibitor 22 nmol/kg,157%
